Substitutions are numbered along the chain they refer to. Names and notes keep the numbering of the source.

The term Kd denotes a measure of binding affinity in units of concentration. A high value points to lower affinity.

To fix the notation:
T1: MTR4-KOW (human, UniProt P42285 645-787)
T1 construct: human MTR4 KOW domain, residues 645–787; Named without GST in MST, NMR and ITC; the methods say the His-GST tag was cleaved with 3C protease 'when appropriate', so it was probably removed; Isotope-labelled for NMR; also called unlabeled MTR4 KOW; 15N-labelled MTR4-KOW; source: E. coli BL21 star (DE3), purified (Ni-NTA, heparin, SEC); minimal medium with 15N/13C for NMR
T1 sequence (looked up): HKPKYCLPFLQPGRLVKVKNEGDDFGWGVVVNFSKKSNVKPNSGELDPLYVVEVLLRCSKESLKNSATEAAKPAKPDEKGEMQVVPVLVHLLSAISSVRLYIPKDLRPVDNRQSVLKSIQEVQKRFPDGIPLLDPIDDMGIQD

T2: GST-MTR4∆N R743E (human, UniProt P42285 75-1042, R743E)
T2 construct: also called R743E mutant; source: E. coli BL21 star (DE3), purified (Ni-NTA, heparin, SEC); not shown: 6xHis-GST, N-terminal, kept
T2 sequence (looked up): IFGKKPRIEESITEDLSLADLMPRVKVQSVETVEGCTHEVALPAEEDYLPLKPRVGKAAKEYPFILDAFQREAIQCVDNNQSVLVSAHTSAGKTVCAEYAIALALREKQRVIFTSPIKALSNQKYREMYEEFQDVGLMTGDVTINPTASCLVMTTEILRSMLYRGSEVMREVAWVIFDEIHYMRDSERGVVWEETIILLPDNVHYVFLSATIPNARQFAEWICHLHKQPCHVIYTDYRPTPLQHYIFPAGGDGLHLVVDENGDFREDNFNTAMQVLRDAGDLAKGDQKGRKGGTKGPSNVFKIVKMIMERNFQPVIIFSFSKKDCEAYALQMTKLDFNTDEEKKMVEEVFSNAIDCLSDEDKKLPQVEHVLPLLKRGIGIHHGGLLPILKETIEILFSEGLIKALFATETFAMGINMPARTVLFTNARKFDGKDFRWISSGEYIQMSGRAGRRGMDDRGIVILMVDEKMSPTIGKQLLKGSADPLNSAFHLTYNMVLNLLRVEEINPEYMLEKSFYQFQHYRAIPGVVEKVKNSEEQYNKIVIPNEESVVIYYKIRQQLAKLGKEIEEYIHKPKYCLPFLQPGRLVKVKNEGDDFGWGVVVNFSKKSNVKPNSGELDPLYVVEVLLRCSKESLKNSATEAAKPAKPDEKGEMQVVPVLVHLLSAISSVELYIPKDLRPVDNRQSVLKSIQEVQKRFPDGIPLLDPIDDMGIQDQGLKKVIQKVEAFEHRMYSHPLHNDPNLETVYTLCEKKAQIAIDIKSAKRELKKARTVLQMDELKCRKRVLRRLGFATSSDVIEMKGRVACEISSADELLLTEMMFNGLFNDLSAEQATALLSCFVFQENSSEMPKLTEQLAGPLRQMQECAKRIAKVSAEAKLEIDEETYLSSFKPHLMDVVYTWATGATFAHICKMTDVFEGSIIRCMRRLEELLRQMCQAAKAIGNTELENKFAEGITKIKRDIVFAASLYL

T3: GST-MTR4-∆N (human, UniProt P42285 75-1042)
T3 construct: Tag is cleavable with 3C protease; kept for the GST pull-downs; also called GST-tagged MTR4∆N; source: E. coli BL21 star (DE3), purified (Ni-NTA, heparin, SEC); not shown: 6xHis-GST, N-terminal, kept
T3 sequence (looked up): T2 sequence (looked up) with E669R

B1: MBP-ZCCHC8^91–211-(GS)3-eYFP (domain or fragment, human, UniProt Q6NZY4 91-211, looked up)
chain: DGPILQILFMNNAISKQYHQEIEEFVSNLVKRFEEQQKNDVEKTSFNLLPQPSSIVLEEDHKVEESCAIKNNKEAFSVVGSVLYFTNFCLDKLGQPLLNENPQLSEGWEIPKYHQVFSHIV
notes: also called ZCCHC8-YFP fusion protein; source: E. coli BL21 star (DE3), purified (Ni-NTA, SEC); not shown: 6xHis-MBP, N-terminal, kept; (GS)3-eYFP, C-terminal, kept
B2: MBP-ZCCHC8^91–211 (domain or fragment, human, UniProt Q6NZY4 91-211, looked up)
chain: B1 chain
notes: source: E. coli BL21 star (DE3), purified (Ni-NTA, SEC); not shown: 6xHis-MBP, N-terminal, kept
B3: MBP-ZCCHC8^91–211 F178A/D181R (domain or fragment, human, UniProt Q6NZY4 91-211, looked up)
chain: B1 chain with F88A, D91R
notes: also called F178A/D181R mutant; source: E. coli BL21 star (DE3), purified (Ni-NTA, SEC); not shown: 6xHis-MBP, N-terminal, kept
B4: MBP-ZCCHC8^91–211 W198A/K202E (domain or fragment, human, UniProt Q6NZY4 91-211, looked up)
chain: B1 chain with W108A, K112E
notes: also called W198A/K202E mutant; source: E. coli BL21 star (DE3), purified (Ni-NTA, SEC); not shown: 6xHis-MBP, N-terminal, kept
B5: Trx-NVL^1–266 (domain or fragment, human, UniProt O15381 1-266, looked up)
chain: MKPRPAGFVDNKLKQRVIQYLTSNKCGKYVDIGVLASDLQRVYSIDYGRRKRNAFRIQVEKVFSIISSEKELKNLTELEDEHLAKRARQGEEDNEYTESYSDDDSSMEDYPDPQSANHMNSSLLSLYRKGNPDSVSNTPEMEQRETTSSTPRISSKTGSIPLKTPAKDSEGGWFIDKTPSVKKDSFFLDLSCEKSNPKKPITEIQDSKDSSLLESDMKRKGKLKNKGSKRKKEDLQEVDGEIEAVLQKKAKARGLEFQISNVKFED
notes: also called N-terminal region of human NVL tagged with thioredoxin; source: E. coli BL21 star (DE3), purified (Ni-NTA, SEC); not shown: 6xHis-Trx, N-terminal, kept
B6: NVL^167–216 D176A (domain or fragment, human, UniProt O15381 167-216, looked up)
chain: KDSEGGWFIAKTPSVKKDSFFLDLSCEKSNPKKPITEIQDSKDSSLLESD
notes: The methods give Trx-NVL constructs for the NVL pull-downs, so the Trx tag was probably kept; also called D176A mutant; source: E. coli BL21 star (DE3), purified (Ni-NTA, SEC)
B7: Trx-NVL^167–216 F186A D189R (domain or fragment, human, UniProt O15381 167-216, looked up)
chain: B6 chain with A10D, F20A, D23R
notes: also called F186A and D189R mutations in the Nop53-like stretch; source: E. coli BL21 star (DE3), purified (Ni-NTA, SEC); not shown: 6xHis-Trx, N-terminal, kept
B8: GST-MTR4-KOW (domain or fragment, human, UniProt P42285 645-787, looked up)
chain: T1 sequence (looked up)
notes: human MTR4 KOW domain, residues 645–787; also called GST-tagged MTR4 KOW; source: E. coli BL21 star (DE3), purified (Ni-NTA, heparin, SEC); not shown: 6xHis-GST, N-terminal, kept

Holding throughout (conditions): both partners purified
The target in one test is T1, MTR4-KOW. Briefly: MST; 1 μM MBP-ZCCHC8^91–211-(GS)3-eYFP with a 1:1 dilution series of unlabeled MTR4-KOW; 50 mM Hepes/NaOH pH 7.5, 150 mM NaCl, 5% glycerol, 0.5 mM TCEP; MST power 70%, LED power 15%; triplicates.
A further test concerns the target T2, GST-MTR4∆N R743E. As to the kind of experiment: pull-down; GST-tagged MTR4 constructs as bait, MBP-ZCCHC8 constructs as prey, glutathione sepharose; 2 μM GST-MTR4∆N with 8 μM MBP-ZCCHC8 constructs; 50 mM Hepes pH 7.5, 150 mM NaCl, 5% glycerol, 0.05% NP40, 1 mM DTT, 30 min at 4 °C; SDS-PAGE, Coomassie.
The target in test [1] is T3, GST-MTR4-∆N. The test is described as above.
Test [2] addresses T3, GST-MTR4-∆N. Briefly: pull-down; GST-tagged MTR4 constructs as bait, Trx-NVL constructs as prey, glutathione sepharose; 10 μM GST-MTR4∆N with 20 μM Trx-NVL constructs; 50 mM Hepes pH 7.5, 150 mM NaCl, 5% glycerol, 0.05% NP40, 1 mM DTT, 30 min at 4 °C; SDS-PAGE, Coomassie.
For the test “Trx-NVL^1–266”, the target named is B5. The test is described as above.

Take B1: the Kd with MTR4-KOW was ~300 nM. As to B2, the binding result with GST-MTR4∆N R743E is “binds”. For the molecule B3, in the test with GST-MTR4-∆N [1], the binding result is on record as “binds”. In the case of B4, the binding result with GST-MTR4-∆N [1] is given as “binds”.

With B5, the binding result in the test with GST-MTR4-∆N [2] is recorded as “binds”. Still for that read-out and setting: in the case of B6 it was “binds”; in that of B7, “binds”. For B8, in the test with Trx-NVL^1–266, the binding result is “binds”.

The record behind these values is paper PMC6662825, “The MTR4 helicase recruits nuclear adaptors of the human RNA exosome using distinct arch-interacting motifs” (Nature Communications, 2019).
